# Source: US20250043020A1
# Assays:
# [1] = molecular target: human Ankyrin Repeat Domain-Containing Protein 30B (NY-BR-1.1), full-length, on cells (human) (UniProt Q9BXX2); assay: flow cytometry on NY-BR-1.1 transfected Bosc23 cells; PE anti-mouse Fcγ subclass I secondary
# [2] = molecular target: human Ankyrin Repeat Domain-Containing Protein 30A (NY-BR-1), full-length, on cells (human) (UniProt Q9BXX3); assay: flow cytometry on NY-BR-1 transfected Bosc23 cells; PE anti-mouse Fcγ subclass I secondary
# UniProt Q9BXX3, sequence (Q9BXX3 whole entry, the tested form may be a part): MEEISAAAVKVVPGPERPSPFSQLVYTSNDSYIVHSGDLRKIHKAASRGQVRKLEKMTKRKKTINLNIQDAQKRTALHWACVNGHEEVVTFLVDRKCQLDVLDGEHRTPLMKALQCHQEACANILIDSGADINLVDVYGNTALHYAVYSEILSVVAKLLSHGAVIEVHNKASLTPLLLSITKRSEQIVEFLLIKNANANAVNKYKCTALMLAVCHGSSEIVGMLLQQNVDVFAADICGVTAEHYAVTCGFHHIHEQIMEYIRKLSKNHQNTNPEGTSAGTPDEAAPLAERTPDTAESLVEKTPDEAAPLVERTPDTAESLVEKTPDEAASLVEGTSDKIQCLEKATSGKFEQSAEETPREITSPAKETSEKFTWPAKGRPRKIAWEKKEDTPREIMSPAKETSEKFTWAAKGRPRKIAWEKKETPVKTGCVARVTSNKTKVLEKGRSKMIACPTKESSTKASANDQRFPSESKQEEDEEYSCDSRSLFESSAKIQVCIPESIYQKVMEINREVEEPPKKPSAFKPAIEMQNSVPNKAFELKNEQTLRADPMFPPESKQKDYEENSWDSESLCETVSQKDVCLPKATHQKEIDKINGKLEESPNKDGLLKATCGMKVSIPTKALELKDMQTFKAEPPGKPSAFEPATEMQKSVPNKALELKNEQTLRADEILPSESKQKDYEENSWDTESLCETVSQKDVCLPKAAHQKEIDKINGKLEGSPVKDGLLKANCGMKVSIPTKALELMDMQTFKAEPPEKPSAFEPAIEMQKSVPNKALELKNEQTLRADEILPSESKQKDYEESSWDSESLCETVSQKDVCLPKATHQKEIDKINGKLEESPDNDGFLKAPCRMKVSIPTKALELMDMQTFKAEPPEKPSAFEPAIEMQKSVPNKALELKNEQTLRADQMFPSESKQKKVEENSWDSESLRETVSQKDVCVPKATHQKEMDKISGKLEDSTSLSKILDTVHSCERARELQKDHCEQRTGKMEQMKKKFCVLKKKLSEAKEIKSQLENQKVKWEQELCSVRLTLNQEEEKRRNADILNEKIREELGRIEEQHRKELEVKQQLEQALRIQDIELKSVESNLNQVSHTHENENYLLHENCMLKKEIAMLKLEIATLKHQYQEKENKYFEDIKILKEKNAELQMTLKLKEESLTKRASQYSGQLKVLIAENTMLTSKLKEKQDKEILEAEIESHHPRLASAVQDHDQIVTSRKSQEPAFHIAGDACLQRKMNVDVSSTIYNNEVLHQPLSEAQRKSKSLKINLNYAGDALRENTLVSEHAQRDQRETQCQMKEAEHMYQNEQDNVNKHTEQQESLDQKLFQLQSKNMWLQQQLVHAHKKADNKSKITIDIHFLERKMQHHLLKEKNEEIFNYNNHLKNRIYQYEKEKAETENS
# UniProt Q9BXX2, sequence (Q9BXX2 whole entry, the tested form may be a part): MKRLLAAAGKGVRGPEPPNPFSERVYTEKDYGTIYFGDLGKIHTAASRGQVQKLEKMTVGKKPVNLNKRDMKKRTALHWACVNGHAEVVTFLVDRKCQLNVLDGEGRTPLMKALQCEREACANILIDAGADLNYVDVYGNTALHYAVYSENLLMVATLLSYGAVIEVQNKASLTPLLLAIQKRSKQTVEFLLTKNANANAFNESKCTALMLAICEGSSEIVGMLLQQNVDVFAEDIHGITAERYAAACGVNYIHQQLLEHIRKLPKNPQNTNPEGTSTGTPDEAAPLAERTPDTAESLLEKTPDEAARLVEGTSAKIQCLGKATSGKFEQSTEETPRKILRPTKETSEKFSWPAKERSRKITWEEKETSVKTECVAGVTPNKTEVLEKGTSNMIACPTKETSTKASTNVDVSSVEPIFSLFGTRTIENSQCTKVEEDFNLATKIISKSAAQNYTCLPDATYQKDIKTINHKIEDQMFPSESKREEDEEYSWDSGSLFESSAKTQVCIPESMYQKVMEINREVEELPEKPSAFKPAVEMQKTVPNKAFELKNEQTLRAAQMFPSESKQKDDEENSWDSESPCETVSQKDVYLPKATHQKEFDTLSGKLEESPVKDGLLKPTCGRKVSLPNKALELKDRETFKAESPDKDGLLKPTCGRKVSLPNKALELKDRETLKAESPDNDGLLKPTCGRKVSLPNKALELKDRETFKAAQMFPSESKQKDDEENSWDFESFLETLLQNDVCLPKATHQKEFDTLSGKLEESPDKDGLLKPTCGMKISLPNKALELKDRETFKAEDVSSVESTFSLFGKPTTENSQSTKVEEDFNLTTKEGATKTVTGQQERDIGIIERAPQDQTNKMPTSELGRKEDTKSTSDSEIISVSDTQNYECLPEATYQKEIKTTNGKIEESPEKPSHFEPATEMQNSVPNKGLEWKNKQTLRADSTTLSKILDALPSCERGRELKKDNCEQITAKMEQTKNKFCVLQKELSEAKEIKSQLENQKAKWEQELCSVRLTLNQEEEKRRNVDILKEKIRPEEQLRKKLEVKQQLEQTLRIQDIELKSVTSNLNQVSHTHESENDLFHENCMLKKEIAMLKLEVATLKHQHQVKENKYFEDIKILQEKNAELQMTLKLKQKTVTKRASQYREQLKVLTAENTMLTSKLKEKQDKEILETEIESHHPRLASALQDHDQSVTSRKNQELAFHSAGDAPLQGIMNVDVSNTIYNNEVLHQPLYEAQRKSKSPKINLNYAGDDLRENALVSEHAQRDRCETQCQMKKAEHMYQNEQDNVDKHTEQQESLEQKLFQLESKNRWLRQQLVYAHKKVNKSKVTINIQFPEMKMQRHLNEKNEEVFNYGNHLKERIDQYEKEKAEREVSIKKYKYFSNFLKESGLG
substance,measurement,setting,value
"isotype control (Example 1, flow cytometry with full-length murine antibodies) (antibody)",MFI,[1],90
same,MFI,[2],74
